Reference: patent US20190322730A1

Tests used:
Test in all cases: binding screen of Example 5; method and unit not stated
C3c = C3c (UniProt P01024)
iC3b = iC3b (UniProt P01024)
C3b (human) = C3b (human) (UniProt P01024)
C3b (human), sequence (P01024 23-667 limits assumed, chain 1 of 2): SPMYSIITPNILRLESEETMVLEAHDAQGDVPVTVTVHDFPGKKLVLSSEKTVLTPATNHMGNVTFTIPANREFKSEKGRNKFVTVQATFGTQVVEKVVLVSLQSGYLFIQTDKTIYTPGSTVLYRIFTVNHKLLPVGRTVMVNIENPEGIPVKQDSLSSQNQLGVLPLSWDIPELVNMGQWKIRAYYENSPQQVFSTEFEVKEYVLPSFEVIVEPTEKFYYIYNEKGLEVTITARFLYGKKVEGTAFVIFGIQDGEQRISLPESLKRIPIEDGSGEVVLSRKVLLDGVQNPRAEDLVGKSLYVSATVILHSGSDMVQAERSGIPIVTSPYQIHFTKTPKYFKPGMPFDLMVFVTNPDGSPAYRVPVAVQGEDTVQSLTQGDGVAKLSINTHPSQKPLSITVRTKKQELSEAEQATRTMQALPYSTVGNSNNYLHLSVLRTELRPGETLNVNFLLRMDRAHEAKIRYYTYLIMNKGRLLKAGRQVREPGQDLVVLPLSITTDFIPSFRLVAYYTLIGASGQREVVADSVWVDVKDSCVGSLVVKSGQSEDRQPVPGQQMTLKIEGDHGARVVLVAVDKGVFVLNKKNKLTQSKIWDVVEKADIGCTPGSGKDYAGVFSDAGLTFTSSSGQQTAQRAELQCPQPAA
C3b (human), sequence (P01024 749-1663 limits assumed, chain 2 of 2): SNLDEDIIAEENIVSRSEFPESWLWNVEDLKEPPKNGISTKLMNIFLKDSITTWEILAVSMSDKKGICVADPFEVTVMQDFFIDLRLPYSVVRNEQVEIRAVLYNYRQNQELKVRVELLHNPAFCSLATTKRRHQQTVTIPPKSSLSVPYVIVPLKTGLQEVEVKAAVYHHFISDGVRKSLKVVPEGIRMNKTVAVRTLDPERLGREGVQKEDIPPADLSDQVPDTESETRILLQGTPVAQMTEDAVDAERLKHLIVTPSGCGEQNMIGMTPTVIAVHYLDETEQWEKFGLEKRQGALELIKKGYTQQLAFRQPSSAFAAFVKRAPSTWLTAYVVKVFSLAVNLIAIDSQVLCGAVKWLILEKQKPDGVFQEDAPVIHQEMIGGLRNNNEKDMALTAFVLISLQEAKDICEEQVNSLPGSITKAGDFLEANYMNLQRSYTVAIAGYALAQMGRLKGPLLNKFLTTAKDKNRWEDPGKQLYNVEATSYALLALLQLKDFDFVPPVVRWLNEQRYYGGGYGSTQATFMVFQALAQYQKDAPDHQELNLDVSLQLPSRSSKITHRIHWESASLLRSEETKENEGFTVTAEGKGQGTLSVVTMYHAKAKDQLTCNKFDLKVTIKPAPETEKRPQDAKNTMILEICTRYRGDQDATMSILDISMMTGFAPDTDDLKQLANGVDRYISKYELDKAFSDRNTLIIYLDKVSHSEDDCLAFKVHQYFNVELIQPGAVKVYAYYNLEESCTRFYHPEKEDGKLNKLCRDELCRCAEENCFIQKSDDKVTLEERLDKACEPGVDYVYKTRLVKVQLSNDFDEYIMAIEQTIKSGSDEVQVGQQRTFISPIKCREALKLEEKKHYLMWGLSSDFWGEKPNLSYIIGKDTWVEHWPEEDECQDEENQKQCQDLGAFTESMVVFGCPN

Row | Binder | binding relative to negative control mIgG2 (C3c) | binding relative to negative control mIgG2 (iC3b) | binding relative to negative control mIgG2 (C3b (human))
1 | antibody 38F5 (antibody, V domains shown) VH: EVMLVESGGALVKPGGSLKLSCTASGFTFSNYAMSWVRQTPEKRLEWVAQTISSGGRYTYYPDSVKGRFTISRDNARNTLYLQMSSLRSEDTAMYYCVRRYYGNSYWYFDVWGAGTTVTVSS VL: DIVMTQSPSSLSVSAGEKVTMNCKSSQSLLNSGNQKHYLTWYQQKPGQPPKLLIYGASTRGSGVPDRFTGSGSGTDFTLTISSVQAEDLAVYYCQNDHSYPYTFGGGTKLEIK | 0.45 | 0.45 | –
2 | antibody 3G8 (antibody, V domains shown) VH: EIQLQQSGAELVKPGASVKISCMASGYSFTGYNMNWVKQSHGKGLEWIGNINPYYDSTSYNQKFKGKATLTVDKSSSTAYMQLNSLTSEDSAVYYCARENYDFVGFAYWGQGTLVTVSA VL: QIVLSQSPAILSASPGEKVTMTCRASSSVSYMHWFQQKPGSSPKPWIYVTSNLASGVPPRFSGSGSGTSYSLTISRVEAEDAATYYCQQWSTNPLTFGAGTKLELK | 0.22 | 0.25 | –
3 | antibody 3D8 (antibody, V domains shown) VH: EIQLQQSGAELVKPGASVKISCKASGYSFTGYNMNWVKQSHGKSLEWIGNINPYYGSTNYNQKFKGKATLTVDKSSTTAYMQLDSLTSEDSAVYYCARGYYGGNYPFAYWGQGTLVTVSA VL: DIQMTQSPASLSASVGETVTITCRASENIYSYLAWYQQKQGKSPQLLVYNAKTLAEGVPSRFSGSGSGTQFSLKINSLQPEDFGSYYCQHYYGTPYTFGGGSKVEIK | 0.17 | 0.29 | –

Other lines, results leading:

Row | binding relative to negative control mIgG2 (C3c) | binding relative to negative control mIgG2 (iC3b) | binding relative to negative control mIgG2 (C3b (human)) | Binder
4 | 0.13 | 0.06 | 0.06 | antibody 38G10 (antibody, V domains shown) VH: EVQLQQSGPELVKPGDSVKMSCKASGYTFTDFYMDWVKQSHGKSLEWIGYIYPHNGGTTYNQNFTGKATLTVDKSSNTAYMELHSLTSEDSAVYYCARRGGFDFDYWGQGTTLTVSS VL: NIVMTQSPKSMSLSVGERVTLRCKASENVDTYVSWYQQKPEQSPKLLIYGASNRYTGVPDRFTGSGSATEFTLTISSVQAEDLVGYHCGQSHSYPLTFGAGTKLELK
5 | 0.43 | 0.49 | – | antibody 62F2 (antibody, V domains shown) VH: DVQLQESGPDLVKPSQSLSLTCTVTGYSITSGYSLHWIRQFPGNKLEWMGYIHYSGSTNYNPSLKSRISITRDTSKNQFFLKLNSVTSEDTATYHCARAWDYLDYWGQGTTLTVSS VL: DIQMTQSPASLSASVGETVTITCRASENIYSQLAWYQQKQGKSPQLLVYDAKTLAEGVPSRFSGSGSDTQFSLKIISLQPEDFGRYYCHHHFGILYTFGGGTKLEMK
6 | 0.55 | 0.72 | – | antibody 63A3 (antibody, V domains shown) VH: DVQLQESGPGLVKPSQSLSLTCSVTGYSITSGYYWNWIRQFPGNKLEWMGYIRYDGSNNYNPSLKNRISITRDTSKNQVFLKLNSVTPEDTATYYCARHYGYDGGAFDFWGQGTTLTVSS VL: DIQMTQSPASLSASVGETVTITCRTSENIYNYLVWYQQKQGKSPQLLVYNAKTLEEGVPSRFSGSGSGTQFSLKVNSLQPEDFGSYYCQHHYGTPFTFGSGTKLEIK
